Target: Recombinant human Toll-like receptor 2 (rTLR2), O60603
Test: ELISA
Details: chain shown with the change;; parent: est. 0.37; read off a plot

Chain of Recombinant human Toll-like receptor 2 (rTLR2), O60603 (O60603 21-784): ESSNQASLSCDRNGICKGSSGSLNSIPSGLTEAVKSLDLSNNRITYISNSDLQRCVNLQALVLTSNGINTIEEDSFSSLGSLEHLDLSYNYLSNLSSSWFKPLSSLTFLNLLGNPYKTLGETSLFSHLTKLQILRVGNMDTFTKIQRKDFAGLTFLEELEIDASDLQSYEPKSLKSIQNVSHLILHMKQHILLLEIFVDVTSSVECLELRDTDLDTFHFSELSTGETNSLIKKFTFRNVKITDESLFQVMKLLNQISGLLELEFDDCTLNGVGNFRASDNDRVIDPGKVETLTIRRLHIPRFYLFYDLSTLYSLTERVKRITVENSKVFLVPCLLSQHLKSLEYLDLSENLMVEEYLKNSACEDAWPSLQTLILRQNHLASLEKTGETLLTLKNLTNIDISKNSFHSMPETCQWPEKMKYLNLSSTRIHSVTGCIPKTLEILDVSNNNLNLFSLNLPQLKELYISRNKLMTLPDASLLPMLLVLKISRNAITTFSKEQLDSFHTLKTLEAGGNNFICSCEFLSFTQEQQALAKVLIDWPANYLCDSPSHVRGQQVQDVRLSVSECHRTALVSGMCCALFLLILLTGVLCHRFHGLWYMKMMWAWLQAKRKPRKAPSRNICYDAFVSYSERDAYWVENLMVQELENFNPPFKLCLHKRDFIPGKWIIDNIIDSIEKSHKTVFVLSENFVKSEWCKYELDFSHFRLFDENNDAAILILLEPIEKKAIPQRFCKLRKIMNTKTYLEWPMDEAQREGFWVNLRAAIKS

Row | Binder | response [OD450nm]
1 | Recombinant LipL32 wild type, mature form (rLipL32; 21-272) V35S (protein) GAFGGLPSLKSSFSLSESTVPGTNETVKTFLPYGSVINYYGYVKPGQAPDGLVDGNKKAYYLYVWIPAVIAEMGVRMISPTGEIGEPGDGDLVSDAFKAATPEEKSMPHWFDTWIRVERMSAIMPDQIAKAAKAKPVQKLDDDDDGDDTYKEERHNKYNSLTRIKIPNPPKSFDDLKNIDTKKLLVRGLYRISFTTYKPGEVKGSFVASVGLLFPPGIPGVSPLIHSNPEELQKQAIAAEESLKKAASDATK | 0.25
2 | Recombinant LipL32 wild type, mature form (rLipL32; 21-272) L36S (protein) GAFGGLPSLKSSFVSSESTVPGTNETVKTFLPYGSVINYYGYVKPGQAPDGLVDGNKKAYYLYVWIPAVIAEMGVRMISPTGEIGEPGDGDLVSDAFKAATPEEKSMPHWFDTWIRVERMSAIMPDQIAKAAKAKPVQKLDDDDDGDDTYKEERHNKYNSLTRIKIPNPPKSFDDLKNIDTKKLLVRGLYRISFTTYKPGEVKGSFVASVGLLFPPGIPGVSPLIHSNPEELQKQAIAAEESLKKAASDATK | 0.23
3 | Recombinant LipL32 wild type, mature form (rLipL32; 21-272) F34S (protein) GAFGGLPSLKSSSVLSESTVPGTNETVKTFLPYGSVINYYGYVKPGQAPDGLVDGNKKAYYLYVWIPAVIAEMGVRMISPTGEIGEPGDGDLVSDAFKAATPEEKSMPHWFDTWIRVERMSAIMPDQIAKAAKAKPVQKLDDDDDGDDTYKEERHNKYNSLTRIKIPNPPKSFDDLKNIDTKKLLVRGLYRISFTTYKPGEVKGSFVASVGLLFPPGIPGVSPLIHSNPEELQKQAIAAEESLKKAASDATK | 0.31
